Measurements: patent publication US20230391859A1

Experiments:
[1] = target: cardiac amyloid deposits (ATTR amyloid) (UniProt P02766); experiment: ex vivo binding curve on cardiac tissue sections with amyloid (FIG. 5G)
[2] = target: cardiac amyloid deposits (ATTR amyloid) (UniProt P02766); experiment: ex vivo binding to cardiac amyloid in tissue sections, quantified as % of maximum
[3] = target: cardiac amyloid deposits (ATTR amyloid) (UniProt P02766); experiment: ex vivo binding curve on cardiac tissue sections with amyloid (FIG. 5G); same value in mass units

- Kd [1]: 1.75 nM
- EC50 (read off the curve) [2]: 0.3 µg/mL
- Kd [3]: 0.26 µg/mL
Substance: murine precursor of PRX004 (mPRX004) (antibody)
